The target in this assay is IgG. Nature of the assay: microcalorimetry and surface plasmon resonance. On the technique in general: SPR reads the build-up and loss of mass on a sensor chip optically.

This passage reports Kd results from EP0938497B1.

Consider “locked helix peptide FNM(5)QQRRFY(6)ALH, cyclized (Fig. 11)”, for which the Kd (as a rule, the equilibrium constant for the complex coming apart) came to 100 µM.
